These are literature values, as cited in PMC6008173.

In the data set the target is PCDH15 EC1-2 (Mus musculus) (UniProt Q99PJ1).

As usually defined, the Kd is the equilibrium constant for the complex coming apart. On to CDH23 EC1-2 (from UniProt Q99PF4), for which the Kd was 3000 nM.
